Data as given in patent US20220177587A1, “METHODS AND USES OF VARIANT CD80 FUSION PROTEINS AND RELATED CONSTRUCTS” (Alpine Immune Sciences, Inc., priority 2018, published 2022).
Numbering of substitutions follows the chain as printed. In names and notes the source's numbering stands.

B1: variant CD80 IgV-Fc H18Y/V68M/A71G/D90G (Fc fusion)
chain: VIHVTKEVKEVATLSCGYNVSVEELAQTRIYWQKEKKMVLTMMSGDMNIWPEYKNRTIFDITNNLSIMILGLRPSDEGTYECVVLKYEKGAFKREHLAEVTLSVKAD
B2: variant CD80 IgV-Fc E35D/M47L/A71G/D90G (Fc fusion)
chain: B1 chain with Y18H, E35D, M47L, M68V
B3: variant CD80 IgV-Fc H18Y/A26E/M47L/D90G (Fc fusion)
chain: B1 chain with A26E, M47L, M68V, G71A
B4: variant CD80 IgV-Fc A26E/M47L/A71G/D90G (Fc fusion)
chain: B1 chain with Y18H, A26E, M47L, M68V
B5: variant CD80 IgV-Fc A26E/E35D/M47L/D90G (Fc fusion)
chain: B1 chain with Y18H, A26E, E35D, M47L, M68V, G71A
B6: variant CD80 IgV-Fc A26E/V68M/A71G/D90G (Fc fusion)
chain: B1 chain with Y18H, A26E
B7: variant CD80 IgV-Fc H18Y/M47L/V68M/D90G (Fc fusion)
chain: B1 chain with M47L, G71A
B8: variant CD80 IgV-Fc H18Y/A26E/V68M/A71G (Fc fusion)
chain: B1 chain with A26E, G90D
B9: variant CD80 IgV-Fc M47L/V68M/A71G/D90G (Fc fusion)
chain: B1 chain with Y18H, M47L
B10: variant CD80 IgV-Fc A26E/E35D/V68M/D90G (Fc fusion)
chain: B1 chain with Y18H, A26E, E35D, G71A
B11: variant CD80 IgV-Fc H18Y/A26E/V68M/D90G (Fc fusion)
chain: B1 chain with A26E, G71A
B12: variant CD80 IgV-Fc H18Y/A26E/M47L/A71G (Fc fusion)
chain: B1 chain with A26E, M47L, M68V, G90D
B13: CD80 R29D/Y31L/Q33H/K36G/M38I/T41A/M43R/M47T/E81V/L85R/K89N/A91T/F92P/K93V/R94L/I118V/T120S/T130A/K169E/M174T ECD-Fc (Fc fusion)
chain: VIHVTKEVKEVATLSCGHNVSVEELAQTDILWHKEGKIVLAMRSGDTNIWPEYKNRTIFDITNNLSIVILALRPSDEGTYVCVVRKYENDTPVLEHLAEVTLSVKADFPTPSISDFEVPSSNIRRIICSASGGFPEPHLSWLENGEELNAINTTVSQDPETELYAVSSELDFNTTTNHSFMCLIKYGHLRVNQTFNWNTTKQEHFPDN
B14: CD80 R29D/Y31L/Q33H/K36G/M38I/T41A/M43R/M47T/L70Q/E81V/K89N/A91T/F92P/K93V/R94L/I118V/T120S/I127T/T130A ECD-Fc (Fc fusion)
chain: B13 chain with L70Q, R85L, I127T, E169K, T174M
B15: CD80 H18L/R29D/Y31L/Q33H/K36G/M38I/T41A/M43R/M47T/E81V/L85R/K89N/A91T/F92P/K93V/R94L/F116S/T130A/H188D ECD-Fc (Fc fusion)
chain: B13 chain with H18L, F116S, V118I, S120T, E169K, T174M, H188D
B16: variant CD80 IgV-Fc M47L (Fc fusion)
chain: B1 chain with Y18H, M47L, M68V, G71A, G90D
B17: variant CD80 IgV-Fc E35D/D46V/M47L/L85Q (Fc fusion)
chain: B1 chain with Y18H, E35D, D46V, M47L, M68V, G71A, L85Q, G90D
B18: variant CD80 IgV-Fc E35D/N48K/K89N (Fc fusion)
chain: B1 chain with Y18H, E35D, N48K, M68V, G71A, K89N, G90D
B19: variant CD80 IgV-Fc D46V/L85Q (Fc fusion)
chain: B1 chain with Y18H, D46V, M68V, G71A, L85Q, G90D
B20: variant CD80 IgV-Fc D46V/M47L/V68M (Fc fusion)
chain: B1 chain with Y18H, D46V, M47L, G71A, G90D
B21: variant CD80 IgV-Fc E35D/D46V/M47L/V68M/L85Q (Fc fusion)
chain: B1 chain with Y18H, E35D, D46V, M47L, G71A, L85Q, G90D
B22: variant CD80 IgV-Fc E35D/M47L/V68M (Fc fusion)
chain: B1 chain with Y18H, E35D, M47L, G71A, G90D
B23: variant CD80 IgV-Fc E35D/V68M/L85Q (Fc fusion)
chain: B1 chain with Y18H, E35D, G71A, L85Q, G90D
B24: variant CD80 IgV-Fc M47V/N48K/K89N (Fc fusion)
chain: B1 chain with Y18H, M47V, N48K, M68V, G71A, K89N, G90D
B25: variant CD80 IgV-Fc E35D/N48K (Fc fusion)
chain: B1 chain with Y18H, E35D, N48K, M68V, G71A, G90D

What follows are binders tested against CD28 (human) (UniProt P10747) (assay: flow cytometry, Jurkat cells (CD28)).

| Fold change to WT CD80 [fold] | MFI at 33.3 nM [MFI] | Binder |
| --- | --- | --- |
| 77.8 | 3410 | B1 |
| 30.3 | 1330 | B2 |
| 65.1 | 2860 | B3 |
| 44.5 | 1960 | B4 |
| 35.3 | 1550 | B5 |
| 27.2 | 1190 | B6 |
| 86.4 | 3800 | B7 |
| 2.3 | 99.4 | B8 |
| 82.2 | 3610 | B9 |
| 38.3 | 1680 | B10 |
| 54.5 | 2390 | B11 |
| 13.9 | 611 | B12 |

These binders were tested against CD28 (human) (UniProt P10747) (assay: flow cytometry, transfected Expi293F cells).

| MFI | parental ratio | Binder |
| --- | --- | --- |
| 2740 | 0.06 | B13 |
| 2110 | 0.05 | B14 |
| 1240 | 0.03 | B15 |

What follows are binders tested against human CTLA-4 (human) (UniProt P16410) (assay: flow cytometry, transfected Expi293F cells).
Sequence of human CTLA-4 (human) (P16410 36-223): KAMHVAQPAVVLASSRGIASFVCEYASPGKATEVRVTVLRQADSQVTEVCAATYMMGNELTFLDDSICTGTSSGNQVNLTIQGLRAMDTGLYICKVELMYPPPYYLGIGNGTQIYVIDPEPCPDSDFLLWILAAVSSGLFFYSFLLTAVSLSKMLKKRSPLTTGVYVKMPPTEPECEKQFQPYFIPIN

| MFI | parental ratio | Binder |
| --- | --- | --- |
| 2490 | 0.01 | B13 |
| 2120 | 0.01 | B14 |
| 2090 | 0.01 | B15 |

These binders were tested against human PD-L1 (human) (UniProt Q9NZQ7) (assay: flow cytometry, transfected Expi293F cells).
Sequence of human PD-L1 (human) (Q9NZQ7 19-290): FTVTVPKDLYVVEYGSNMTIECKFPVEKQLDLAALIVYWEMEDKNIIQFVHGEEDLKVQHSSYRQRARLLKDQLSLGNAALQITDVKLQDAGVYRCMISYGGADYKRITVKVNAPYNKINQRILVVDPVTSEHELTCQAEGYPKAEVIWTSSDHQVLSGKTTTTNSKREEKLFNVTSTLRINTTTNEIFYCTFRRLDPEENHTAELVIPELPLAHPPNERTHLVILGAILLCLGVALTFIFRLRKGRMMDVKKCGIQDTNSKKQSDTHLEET

| MFI | parental ratio | Binder |
| --- | --- | --- |
| 158000 | 0.06 | B13 |
| 14200 | 0.05 | B14 |
| 110000 | 0.03 | B15 |

The binders below were run against human PD-L1 (human) (UniProt Q9NZQ7) (assay: flow cytometry, CHO cells expressing huPD-L1).

| MFI at 33.3 nM [MFI] | Binder |
| --- | --- |
| 1900 | B16 |
| 7520 | B17 |
| 5770 | B18 |
| 2200 | B19 |
| 28000 | B20 |
| 28400 | B21 |
| 27900 | B22 |
| 5970 | B23 |
| 2370 | B24 |
| 6540 | B25 |

What follows are binders tested against human CTLA-4 (human) (UniProt P16410) (assay: flow cytometry, CHO cells expressing huCTLA-4).

| MFI at 33.3 nM [MFI] | Binder |
| --- | --- |
| 30800 | B16 |
| 38200 | B17 |
| 34700 | B18 |
| 41900 | B19 |
| 34700 | B20 |
| 26200 | B21 |
| 28600 | B22 |
| 42800 | B23 |
| 42100 | B24 |
| 41300 | B25 |

These binders were tested against CD28 (human) (UniProt P10747) (assay: flow cytometry, Jurkat/IL2 reporter cells (CD28)).

| MFI at 33.3 nM [MFI] | Binder |
| --- | --- |
| 309 | B16 |
| 268 | B17 |
| 411 | B18 |
| 131 | B19 |
| 2180 | B20 |
| 464 | B21 |
| 1240 | B22 |
| 76.2 | B23 |
| 366 | B24 |
| 194 | B25 |

Each binder was assayed against human CTLA-4 (human) (UniProt P16410) (assay: flow cytometry, CHO cells stably expressing CTLA4).

| Fold change to WT CD80 [fold] | MFI at 33.3 nM [MFI] | Binder |
| --- | --- | --- |
| 16.4 | 22300 | B1 |
| 15.4 | 20900 | B2 |
| 17.3 | 23500 | B3 |
| 16.2 | 22000 | B4 |
| 13.4 | 18200 | B5 |
| 6.4 | 8670 | B6 |
| 14 | 19000 | B7 |
| 8.3 | 11300 | B8 |
| 12.8 | 17400 | B9 |
| 10.2 | 13900 | B10 |
| 19 | 25800 | B11 |
| 16.3 | 22100 | B12 |

What follows are binders tested against human PD-L1 (human) (UniProt Q9NZQ7) (assay: flow cytometry, CHO cells stably expressing PD-L1).

| Fold change to WT CD80 [fold] | MFI at 33.3 nM [MFI] | Binder |
| --- | --- | --- |
| 703 | 30700 | B1 |
| 277 | 12100 | B2 |
| 205 | 8930 | B3 |
| 303 | 13200 | B4 |
| 220 | 9580 | B5 |
| 73.3 | 3200 | B6 |
| 499 | 21800 | B7 |
| 158 | 6870 | B8 |
| 714 | 31100 | B9 |
| 160 | 6990 | B10 |
| 295 | 12800 | B11 |
| 357 | 15600 | B12 |

What follows are binders tested against human PD-L1 (human) (UniProt Q9NZQ7) (assay: flow cytometry, MFI on PD-L1 cells over MFI on CD28 cells).

| Ratio of PDL1:CD28 | Binder |
| --- | --- |
| 9 | B1 |
| 9.1 | B2 |
| 3.1 | B3 |
| 6.8 | B4 |
| 6.2 | B5 |
| 2.7 | B6 |
| 5.7 | B7 |
| 69.1 | B8 |
| 8.6 | B9 |
| 4.2 | B10 |
| 5.4 | B11 |
| 25.5 | B12 |

These binders were tested against human PD-L1 (human) (UniProt Q9NZQ7) (assay: flow cytometry; PD-L1 MFI over CD28 MFI of the same protein).

| Ratio of PDL1:CD28 | Binder |
| --- | --- |
| 6.1 | B16 |
| 28.1 | B17 |
| 14 | B18 |
| 16.8 | B19 |
| 12.8 | B20 |
| 61.2 | B21 |
| 22.4 | B22 |
| 78.4 | B23 |
| 6.5 | B24 |
| 33.7 | B25 |

What follows are binders tested against human PD-L1 (human) (UniProt Q9NZQ7) (assay: flow cytometry, CHO/huPD-L1 cells; vs WT CD80 ECD-Fc (Abcam)).

| Fold change to WT CD80 [fold] | Binder |
| --- | --- |
| 14.8 | B16 |
| 58.8 | B17 |
| 45 | B18 |
| 17.2 | B19 |
| 219 | B20 |
| 222 | B21 |
| 218 | B22 |
| 46.6 | B23 |
| 18.5 | B24 |
| 51.1 | B25 |

Each binder was assayed against human CTLA-4 (human) (UniProt P16410) (assay: flow cytometry, CHO/huCTLA-4 cells; vs WT CD80 ECD-Fc (Abcam)).

| Fold change to WT CD80 [fold] | Binder |
| --- | --- |
| 0.8 | B16 |
| 0.9 | B17 |
| 0.9 | B18 |
| 1 | B19 |
| 0.9 | B20 |
| 0.6 | B21 |
| 0.7 | B22 |
| 1.1 | B23 |
| 1 | B24 |
| 1 | B25 |

The binders below were run against CD28 (human) (UniProt P10747) (assay: flow cytometry, Jurkat cells (CD28); vs WT CD80 ECD-Fc (Abcam)).

| Fold change to WT CD80 [fold] | Binder |
| --- | --- |
| 0.4 | B16 |
| 0.4 | B17 |
| 0.6 | B18 |
| 0.2 | B19 |
| 3.1 | B20 |
| 0.7 | B21 |
| 1.8 | B22 |
| 0.1 | B23 |
| 0.5 | B24 |
| 0.3 | B25 |
